According to article PMC9325241:

Key:
[1] = target: recombinant EGFR (human EGFR protein) (human) (UniProt P00533); test: SPR; settings: bispecific antibody
[2] = target: recombinant PD-L1 (human PD-L1 protein) (human) (UniProt Q9NZQ7); test: SPR; settings: bispecific antibody
Sequence of UniProt Q9NZQ7 (Q9NZQ7 19-238): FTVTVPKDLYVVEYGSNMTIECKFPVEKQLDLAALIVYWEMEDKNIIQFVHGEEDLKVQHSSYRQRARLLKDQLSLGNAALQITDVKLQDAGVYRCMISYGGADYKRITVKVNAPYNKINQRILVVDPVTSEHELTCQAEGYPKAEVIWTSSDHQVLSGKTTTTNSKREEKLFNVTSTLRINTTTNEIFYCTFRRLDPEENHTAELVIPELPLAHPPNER

| Kd [1] [nM] | koff [1] [s⁻¹] | Kd [2] [nM] | koff [2] [s⁻¹] | Substance |
| --- | --- | --- | --- | --- |
| 0.913 | 0.0007 | 0.000374 | 7.56e-07 | anti-EGFR/PD-L1 BsAb, dual variable domain immunoglobulin (DVD-Ig) symmetric tetravalent format (from UniProt P01857) |
| 56.3 | 0.0295 | 0.0106 | 2.13e-05 | anti-EGFR/PD-L1 BsAb, knob-in-hole (KIH) asymmetric bivalent format (from UniProt P01857) |
